Data on 1 protein can be found in PMC4245941, “Timely binding of IHF and Fis to DARS2 regulates ATP–DnaA production and replication initiation” (Nucleic Acids Research, 2014).

This data set concerns the molecule itself. As to the kind of experiment: native gel or EMSA; DnaA (ADP or ATP form) incubated at 30°C for 5 min in dissociation buffer (20 mM Tris-HCl pH 7.5, 100 mM potassium glutamate, 10 mM magnesium acetate, 2 mM ATP) with DARS2ΔRight or DARS2ΔRight/subFBS1 DNA (15 fmol) and poly (dI-dC), 5% PAGE; DnaA multimers form on the DNA; without or with IHF and Fis.

B1: DnaA (wild type) (natural protein, Escherichia coli, UniProt P03004 1-467, looked up)
chain: MSLSLWQQCLARLQDELPATEFSMWIRPLQAELSDNTLALYAPNRFVLDWVRDKYLNNINGLLTSFCGADAPQLRFEVGTKPVTQTPQAAVTSNVAAPAQVAQTQPQRAAPSTRSGWDNVPAPAEPTYRSNVNVKHTFDNFVEGKSNQLARAAARQVADNPGGAYNPLFLYGGTGLGKTHLLHAVGNGIMARKPNAKVVYMHSERFVQDMVKALQNNAIEEFKRYYRSVDALLIDDIQFFANKERSQEEFFHTFNALLEGNQQIILTSDRYPKEINGVEDRLKSRFGWGLTVAIEPPELETRVAILMKKADENDIRLPGEVAFFIAKRLRSNVRELEGALNRVIANANFTGRAITIDFVREALRDLLALQEKLVTIDNIQKTVAEYYKIKVADLLSKRRSRSVARPRQMAMALAKELTNHSLPEIGDAFGGRDHTTVLHACRKIEQLREESHDIKEDFSNLIRTLSS
notes: DnaA, chromosomal replication initiator protein, Escherichia coli, wild type; Used loaded with ADP or ATP (not covalent); also called ADP–DnaA; ATP–DnaA
Regarding B1, the binding result is listed as “binds”.
